# Measured values reported in patent US20040167074A1, “Therapeutic applications of mFLINT polypeptides” (priority 1998, published 2004).
# “Also recorded” adds a separate entry of the source.
# B1: mFLINT: mature FLINT without leader peptide (FIG. 3), soluble TNFR superfamily member, made according to Examples 8 and 9 (protein)
# chain: VAETPTYPWRDAETGERLVCAQCPPGTFVQRPCRRDSPTTCGPCPPRHYTQFWNYLERCRYCNVLCGEREEEARACHATHNRACRCRTGFFAHAGFCLEHASCPPGAGVIAPGTPSQNTQCQPCPPGTFSASSSSSEQCQPHRNCTALGLALNVPGSSSHDTLCTSCTGFPLSTRVPGAEECERAVIDFVAFQDISIKRLQRLLQALEAPEGWGPTPRAGRAALQLKLRRRLTELLGAQDGALLVRLLQALRVARMPGLERSVRERFLPVH
# modifications: glycosylated
# Tests used:
# [1] = system: bone marrow progenitor cells; assay: CFU assay of bone marrow cells expanded in vitro with SCF and IL-6; format: cell-based, mouse; settings: FIG. 9, mFLINT 1 ug/ml, 3 days with SCF and IL-6
# Method: A—Bone marrow cells from irradiated mice—This experiment was designed to determine whether mFLINT could improve the recovery of murine hematopoietic progenitor cells from irradiation, by forcing in vitro expansion with hematopoietic cytokines. Mice were injected with 3 mg of 5-flouro-uracil, i.p., and four days later, femurs were removed and flushed to isolate bone marrow (BM) cells. 1×10^6 BM cells were seeded in each well of a 24 well tray in triplicate in Iscoves modified dulbeccos media (IMDM)+10% FBS and were stimulated for 3 days with the cytokines stem cell factor (SCF) and IL-6, in the presence or absence of mFLINT (1 ug/ml). After a 3-day in vitro expansion period, 5×10^3 cells were plated out in triplicate for the CFU assay.
# [2] = biological target: T1, Fas-FasLigand interaction (Homo sapiens, UniProt P48023); assay: ELISA: FLINT prevents Fas-FasLigand interaction; format: binding; settings: hFasLigand 30 ng, mrecFas 100 ng adsorbed
# T1 sequence (P48023 103-281 limits assumed): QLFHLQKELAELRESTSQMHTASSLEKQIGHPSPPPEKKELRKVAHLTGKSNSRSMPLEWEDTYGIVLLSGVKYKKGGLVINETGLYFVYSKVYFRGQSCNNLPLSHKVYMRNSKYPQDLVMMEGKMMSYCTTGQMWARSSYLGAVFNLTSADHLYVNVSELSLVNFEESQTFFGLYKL
# Method: As above, mrecFas (100 ng) was adsorbed on to ELISA plate. Again the plate was blocked by TBST and 0.1% Gelatine. […] As before, after washing of the plate, anti-mouse-Abs-HRP (3000 dilution, Bio-Rad) was added to the wells. After washings, visualization enzymatic reaction using ABTS as a substrate was performed.
# osteoclasts = assay: Murine osteoclast differentiation assay (TRAP staining); format: cell-based, mouse; settings: mean and standard error of 6 wells
# Method: Male Balb/C mice (4-8 weeks old) were euthanized with CO2, the femurs removed, and the marrow flushed out of the femurs with growth medium. Bone marrow cells were pelleted by centrifugation at 500×g for 6 min. and resuspended in the growth medium (RPMI 1640 plus 5% heat inactivated fetal bovine-serum and 1% antibiotic-antimycotic solution). The marrow population (5×10^4 cells/cm^2) was seeded in tissue culture dishes in which BALC cells (a stable cell line derived from neonatal mouse calvariae, 1.5×10^4 cells/cm^2) had been plated 2 h prior to addition of bone marrow. The cells were cultured for 7 days in a humidified incubator at 37° C. with 5% CO2 with medium changes on days 3 and 5. Cultures were treated with or without 10^−8M 1,25-(OH)2D3 on days 0, 3, and 5. In addition, -the cells were treated with or without secreted mFLINT protein purified from the conditioned medium of cells transfected with mFLINT gene (FIG. 1). Following 7 days of culture, the cells in 24-well cluster dishes were fixed with formalin (3.7% for 10 min) and then stained for tartrate-resistant acid phosphatase (TRAP) using a modification of the method described by Graves, L and Jilka R L, J Cell Physiology 145:102 1990. The number of osteoclasts (TRAP-positive cells containing 3 or more nuclei) was quantitated.
# TRANCE = biological target: T2, TRANCE (Homo sapiens, UniProt O14788); assay: Dot blot binding of mFLINT to TNF ligands
# T2 construct: purchased
# T2 sequence (O14788 140-317 limits assumed): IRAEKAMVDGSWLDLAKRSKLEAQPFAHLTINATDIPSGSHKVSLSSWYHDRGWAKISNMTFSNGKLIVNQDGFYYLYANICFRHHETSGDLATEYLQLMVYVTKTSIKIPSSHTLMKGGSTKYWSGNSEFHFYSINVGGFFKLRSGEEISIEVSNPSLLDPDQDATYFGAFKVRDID
# [3] = system: intact hippocampal neurons along the dorsal CA1 regions; assay: Gerbil cerebral ischemia (carotid occlusion), hippocampal CA1 neuron count; format: in vivo; settings: 5 min carotid occlusion; 5 ul bolus 0.63 mg/ml then 1 ul/h for 3 days intracerebral; day 5; p-0.0039 t-Test, p=0.0037 Wilcoxon
# Method: Adult male gerbils (70 to 80 g body weight, Charles River Laboratories, Wilmington, Mass.) were anesthetized by i.p. injections of sodium pentobarbital (Nembutal) 40 mg/kg, and additional i.p. injections of 10 mg/kg when necessary to maintain a surgical plane of anesthesia. Animals were placed on a thermostatically controlled heating blanket to maintain body temperature at 37° C. The ventral surface of the neck was exposed, the fur shaved, and the skin cleaned with 2% iodine solution.
# After the pre-surgical preparation, a midline incision was made, and the skin opened. The sternohyoid muscles were divided to exposed and isolate the common carotid arteries (CCA) for clamping. Sterilized aneurysm clips (blade with 0.15 mm, closing force ^˜10 gm) was secured by means of a sterilized clip applier on both left and right CCA for 5 minutes. The clamps were then removed and the patency of the arteries checked visually. The wound in the neck was closed by surgical suture. […]
# On the fifth day of survival; the gerbils were sacrificed in a CO2 chamber. […] After staining with Cresyl violet, the sections were viewed under a microscope at 40× magnification for cell counter quantification of the intact hippocampal neurons along the dorsal CA1 regions (0.5 mm in length) of both hemispheres. Data were analyzed by Student t-Test and the Wilcoxon ranking test.
molecule,measurement,setting,value
B1,CFU-GEMM colonies,"[1]; control 750, p<0.007","3,000 colonies/3×10^6 stimulated BM cells"
same,CFU-GM colonies,"[1]; control 8,000, p<0.039","15,000 colonies/3×10^6 stimulated BM cells"
same,CFU-E colonies,"[1]; control 15,000, p<0.003","33,000 colonies/3×10^6 stimulated BM cells"
same,"OD, 405 nM",[2]; FLINT 1 ng,0.36
same,"OD, 405 nM",[2]; FLINT 5 ng,0.36
same,"OD, 405 nM",[2]; FLINT 10 ng,0.36
same,"OD, 405 nM",[2]; FLINT 50 ng,0.28
same,"OD, 405 nM",[2]; FLINT 100 ng,0.18
same,"OD, 405 nM",[2]; FLINT 500 ng,0.06
same,Osteoclasts/well,"osteoclasts; FLINT 0.01 ng/ml, control 145.50",40.50 ± 2.39 Osteoclasts/well
same,Osteoclasts/well,osteoclasts; FLINT 0.10 ng/ml,65.50 ± 3.33 Osteoclasts/well
same,Osteoclasts/well,osteoclasts; FLINT 1.00 ng/ml,97.50 ± 3.10 Osteoclasts/well
same,Osteoclasts/well,osteoclasts; FLINT 10.00 ng/ml,170.17 ± 8.26 Osteoclasts/well
same,Osteoclasts/well,osteoclasts; FLINT 100.00 ng/ml,335.00 ± 8.90 Osteoclasts/well
same,binding in dot blot,TRANCE,No appreciable binding
same,neuronal survival (intact hippocampal CA1 neurons),[3],significant effect on neuronal survival compared to vehicle; also recorded: indistinguishable from normal controls
